Test results taken from patent US20200385441A1 (TECHNION RESEARCH AND DEVELOPMENT FOUNDATION, published 2020).

Target: T1, human Melanoma-associated Chondroitin Sulfate Proteoglycan (MCSP) (human, UniProt Q6UVK1 30-2322)
T1 construct: whole, on cells; also called CSPG4; NG2
Experiment: flow cytometry on B16F10-MCSP (C25) cells, detected with Strep-PE or fold-specific anti-H-2K antibody

T1 sequence (Q6UVK1 30-2322): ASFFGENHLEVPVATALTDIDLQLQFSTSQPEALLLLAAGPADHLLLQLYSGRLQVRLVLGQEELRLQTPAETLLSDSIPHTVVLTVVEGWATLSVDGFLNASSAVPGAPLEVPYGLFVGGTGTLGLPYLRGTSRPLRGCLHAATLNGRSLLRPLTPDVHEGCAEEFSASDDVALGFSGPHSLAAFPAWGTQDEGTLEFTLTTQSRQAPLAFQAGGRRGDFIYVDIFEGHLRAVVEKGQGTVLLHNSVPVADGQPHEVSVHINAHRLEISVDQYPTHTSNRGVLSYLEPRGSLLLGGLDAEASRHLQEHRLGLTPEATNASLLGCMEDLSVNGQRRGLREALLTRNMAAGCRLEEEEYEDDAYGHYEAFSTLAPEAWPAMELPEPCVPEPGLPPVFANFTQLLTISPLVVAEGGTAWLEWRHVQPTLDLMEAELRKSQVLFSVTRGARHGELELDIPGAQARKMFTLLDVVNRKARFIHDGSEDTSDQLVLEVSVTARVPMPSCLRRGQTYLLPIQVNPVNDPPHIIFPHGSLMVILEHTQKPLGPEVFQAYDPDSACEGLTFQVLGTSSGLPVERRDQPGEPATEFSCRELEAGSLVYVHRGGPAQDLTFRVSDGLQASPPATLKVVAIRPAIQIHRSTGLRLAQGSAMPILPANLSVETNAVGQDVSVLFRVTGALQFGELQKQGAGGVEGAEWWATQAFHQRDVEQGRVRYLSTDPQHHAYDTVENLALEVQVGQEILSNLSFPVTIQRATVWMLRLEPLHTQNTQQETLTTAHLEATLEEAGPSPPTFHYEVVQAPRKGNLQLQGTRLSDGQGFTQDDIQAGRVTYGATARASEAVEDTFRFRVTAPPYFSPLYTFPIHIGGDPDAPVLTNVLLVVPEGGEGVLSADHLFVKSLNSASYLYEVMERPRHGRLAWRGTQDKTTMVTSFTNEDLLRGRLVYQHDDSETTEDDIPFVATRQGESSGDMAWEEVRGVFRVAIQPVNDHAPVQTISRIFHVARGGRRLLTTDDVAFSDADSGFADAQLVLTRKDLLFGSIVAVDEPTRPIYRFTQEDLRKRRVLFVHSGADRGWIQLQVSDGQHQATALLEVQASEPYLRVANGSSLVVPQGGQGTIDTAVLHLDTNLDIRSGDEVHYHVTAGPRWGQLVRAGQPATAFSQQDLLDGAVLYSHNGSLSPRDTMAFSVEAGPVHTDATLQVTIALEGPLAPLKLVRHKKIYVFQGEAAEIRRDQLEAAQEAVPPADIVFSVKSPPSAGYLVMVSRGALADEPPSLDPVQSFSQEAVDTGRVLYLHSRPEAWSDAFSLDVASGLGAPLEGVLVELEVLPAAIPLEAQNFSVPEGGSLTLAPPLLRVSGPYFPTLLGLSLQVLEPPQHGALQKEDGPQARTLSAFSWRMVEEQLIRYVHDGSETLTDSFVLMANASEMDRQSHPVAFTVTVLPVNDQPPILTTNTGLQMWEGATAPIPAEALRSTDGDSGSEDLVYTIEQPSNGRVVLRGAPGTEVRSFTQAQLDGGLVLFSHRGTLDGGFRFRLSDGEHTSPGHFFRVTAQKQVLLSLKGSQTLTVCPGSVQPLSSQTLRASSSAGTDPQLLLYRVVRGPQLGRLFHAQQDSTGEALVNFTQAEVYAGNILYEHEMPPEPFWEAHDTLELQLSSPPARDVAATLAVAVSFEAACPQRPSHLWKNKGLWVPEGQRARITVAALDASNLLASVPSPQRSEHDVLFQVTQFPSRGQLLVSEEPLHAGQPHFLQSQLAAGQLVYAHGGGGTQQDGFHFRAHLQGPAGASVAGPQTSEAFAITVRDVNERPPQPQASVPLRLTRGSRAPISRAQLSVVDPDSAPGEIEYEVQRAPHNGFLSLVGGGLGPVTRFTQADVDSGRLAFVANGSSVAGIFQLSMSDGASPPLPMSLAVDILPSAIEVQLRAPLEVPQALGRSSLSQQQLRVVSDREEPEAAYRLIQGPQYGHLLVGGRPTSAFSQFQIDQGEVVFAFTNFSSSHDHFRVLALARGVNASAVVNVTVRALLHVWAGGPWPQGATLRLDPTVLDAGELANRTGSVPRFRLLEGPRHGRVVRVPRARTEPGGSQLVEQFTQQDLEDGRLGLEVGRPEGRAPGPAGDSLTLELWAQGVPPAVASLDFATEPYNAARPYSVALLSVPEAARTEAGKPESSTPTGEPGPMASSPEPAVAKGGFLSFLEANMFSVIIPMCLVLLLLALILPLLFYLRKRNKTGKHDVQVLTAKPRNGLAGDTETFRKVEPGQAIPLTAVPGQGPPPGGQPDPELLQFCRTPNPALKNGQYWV

B1: BA3 biotinylated peptide-H-2Kd-anti-MCSP scFv fusion protein, 20 amino acid β2M-MHC linker (peptide-MHC)
chain: TYQRTRALVGGGGSGGGGSGGGGSIQKTPQIQVYSRHPPENGKPNILNCYVTQFHPPHIEIQMLKNGKKIPKVEMSDMSFSKDWSFYILAHTEFTPTETDTYACRVKHVSMAEPKTVYWDRDMGGGGSGGGGSGGGGSGGGGSGPHSLRYFVTAVSRPGLGEPRFIAVGYVDDTQFVRFDSDADNPRFEPRAPWMEQEGPEYWEEQTQRAKSDEQWFRVSLRTAQRYYNQSKGGSHTFQRMFGCDVGSDWRLLRGYQQFAYDGRDYIALNEDLKTWTAADTAALITRRKWEQAGDAEYYRAYLEGECVEWLRRYLELGNETLLRTDSPKAHVTYHPRSQVDVTLRCWALGFYPADITLTWQLNGEDLTQDMELVETRPAGDGTFQKWAAVVVPLGKEQNYTCHVHHKGLPEPLTLRWKLPPSTASGGQVKLQQSGGGLVQPGGSMKLSCVVSGFTFSNYWMNWVRQSPEKGLEWIAEIRLKSNNFGRYYAESVKGRFTISRDDSKSSAYLQMINLRAEDTGIYYCTSYGNYVGHYFDHWGQGTTVTVSSGGGGSGGGGSGGGGSDIELTQSPKFMSTSVGDRVSVTCKASQNVDTNVAWYQQKPGQSPEPLLFSASYRYTGVPDRFTGSGSGTDFTLTISNVQSEDLAEYFCQQYNSYPLTFGGGTKLEIKRAHHHHHHGLNDIFEAQKIEWH
notes: also called BA-biotin fusion molecule; biotinylated ScFv-MHC molecule
- binding result: binds
